Values of other authors, collected in article PMC11204982.

Molecular target: CD20 (Homo sapiens) (UniProt P11836)
UniProt P11836, sequence (P11836 whole entry): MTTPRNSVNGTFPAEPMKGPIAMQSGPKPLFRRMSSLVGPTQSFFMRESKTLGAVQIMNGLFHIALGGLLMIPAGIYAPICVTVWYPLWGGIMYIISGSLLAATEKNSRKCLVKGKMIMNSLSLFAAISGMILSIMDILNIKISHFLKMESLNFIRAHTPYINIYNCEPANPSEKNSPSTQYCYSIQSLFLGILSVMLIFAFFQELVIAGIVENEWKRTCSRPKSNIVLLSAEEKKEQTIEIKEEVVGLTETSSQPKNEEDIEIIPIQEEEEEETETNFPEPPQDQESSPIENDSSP

In the case of rituximab, the Kd is listed as 5.2 nM.
